Laboratory results reported in patent publication EP2330125A2.

T1: CGRP receptor (Homo sapiens (Human)), Q16602
T1 chain 1: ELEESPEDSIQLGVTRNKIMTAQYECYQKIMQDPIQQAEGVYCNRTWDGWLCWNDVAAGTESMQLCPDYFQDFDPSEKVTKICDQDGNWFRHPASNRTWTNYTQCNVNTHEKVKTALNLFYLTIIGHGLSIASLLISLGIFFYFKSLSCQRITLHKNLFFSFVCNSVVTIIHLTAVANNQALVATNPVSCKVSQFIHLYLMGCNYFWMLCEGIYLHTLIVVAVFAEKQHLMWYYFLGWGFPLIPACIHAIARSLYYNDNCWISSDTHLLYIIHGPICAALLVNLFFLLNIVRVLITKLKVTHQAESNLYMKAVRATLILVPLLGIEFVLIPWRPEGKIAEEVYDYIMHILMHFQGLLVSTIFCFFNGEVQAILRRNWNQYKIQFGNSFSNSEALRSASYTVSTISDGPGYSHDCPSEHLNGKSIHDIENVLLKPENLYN
T1 chain 2: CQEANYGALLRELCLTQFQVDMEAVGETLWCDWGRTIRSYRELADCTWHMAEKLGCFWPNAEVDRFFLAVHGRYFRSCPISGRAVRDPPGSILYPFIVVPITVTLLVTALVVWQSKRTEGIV

B1: [#Suc-(bAla)-PYY-(3-36), amide] [#NH-Des-Lys1-Rat Amylin, amide] (peptide)
chain 1: not shown
chain 2: CNTATCATQRLANFLVRSSNNLGPVLPPTNVGSNTY
modifications: not checked

What was measured:
[1] = biological target: GLP-1/GIP/CT (receptors of the 'GLP-1/GIP/CT cyclase' assay); test: cell-based or functional assay
[2] = biological target: calcitonin receptor; test: cell-based or functional assay
[3] = biological target: calcitonin receptor; test: calcitonin receptor binding assay
[4] = biological target: amylin receptor (rat); test: 125I-amylin displacement, rat nucleus accumbens membranes
[5] = biological target: calcitonin receptor; test: CT receptor binding assay
[6] = biological target: T1, CGRP receptor (Homo sapiens (Human)), …; test: CGRP receptor binding assay
[7] = biological target: amylin receptor (rat); test: amylin receptor binding assay

Sequence of calcitonin receptor (P30988 whole entry): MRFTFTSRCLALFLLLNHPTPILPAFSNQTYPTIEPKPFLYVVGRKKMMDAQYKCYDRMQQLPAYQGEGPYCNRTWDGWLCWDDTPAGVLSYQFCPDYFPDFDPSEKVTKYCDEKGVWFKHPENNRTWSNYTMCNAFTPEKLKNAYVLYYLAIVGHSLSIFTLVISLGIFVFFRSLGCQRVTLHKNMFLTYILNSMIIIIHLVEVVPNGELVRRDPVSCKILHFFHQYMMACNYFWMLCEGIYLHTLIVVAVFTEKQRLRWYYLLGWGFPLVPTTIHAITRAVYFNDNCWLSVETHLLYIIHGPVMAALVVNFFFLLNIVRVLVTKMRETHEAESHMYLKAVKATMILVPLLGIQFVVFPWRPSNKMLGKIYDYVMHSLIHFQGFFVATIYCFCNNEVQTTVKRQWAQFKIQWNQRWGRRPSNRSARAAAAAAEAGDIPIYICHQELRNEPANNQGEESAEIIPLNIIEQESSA

Binder	GLP-1/GIP/CT cyclase [1]	CT cyclase [2]	Receptor Binding [3]	Receptor Binding [4]	IC50 [5]	IC50 [6]	IC50 [7]
KCNTATCATQRLANFLVRSSNNLGPVLPPTNVGSNTY (modifications not checked) [Rat amylin]	5	326	3	0.05	–	–	–
B1	–	645	46	–	–	–	–
DFMGWMDFGKRKCNTATCATQRLANELVRLQTYPRTNVGSNTY (modifications not checked) [CCK/Amylin-sCT hybrid DF(P-CH2SO3)… …]	–	–	–	–	44 pM	4400 pM	83 pM
DFMGWMDFGKRKCNTATCATQRLANELVRLQTYPRTNVGSNTY (modifications not checked) [27(p-CH2SO3)-PheCCK8(26-33),G,K,R,15Glu,hAmy(1-17),18Arg,sCT(18-26),hAmy(32-37)]	–	–	0.04	–	–	–	–
